US20050112723A1, “Mammalian cell lines specifically deficient in O-linked glycosylation” (priority 2003, published 2005)
Substitutions are numbered along the chain they refer to. Entries after “also recorded” stand apart in the source; their conditions may differ.

B1: WThGALE: wild type human GALE (UDP-galactose 4-epimerase) (protein, UniProt Q14376 1-348, looked up)
UDP-glucose 4-epimerase: MAEKVLVTGGAGYIGSHTVLELLEAGYLPVVIDNFHNAFRGGGSLPESLRRVQELTGRSVEFEEMDILDQGALQRLFKKYSFMAVIHFAGLKAVGESVQKPLDYYRVNLTGTIQLLEIMKAHGVKNLVFSSSATVYGNPQYLPLDEAHPTGGCTNPYGKSKFFIEEMIRDLCQADKTWNAVLLRYFNPTGAHASGCIGEDPQGIPNNLMPYVSQVAIGRREALNVFGNDYDTEDGTGVRDYIHVVDLAKGHIAALRKLKEQCGCRIYNLGTGTGYSVLQMVQAMEKASGKKIPYKVVARREGDVAACYANPSLAQEELGWTAALGLDRMCEDLWRWQKQNPSGFGTQA
B2: C307YhGALE: wild type hGALE except a tyrosine residue has been substituted for cysteine at position 307 (protein)
chain: B1 UDP-glucose 4-epimerase with C307Y
modifications: Human polypeptide
B3: WTeGALE: wild-type E. coli GALE (UDP-galactose 4-epimerase) (protein)
chain: MRVLVTGGSGYIGSHTCVQLLQNGHDVIILDNLCNSKRSVLPVIERLGGKHPTFVEGDIRNEALMTEILHDHAIDTVIHFAGLKAVGESVQKPLEYYDNNVNGTLRLISAMRAANVKNFIFSSSATVYGDQPKIPYVESFPTGTPQSPYGKSKLMVEQILTDLQKAQPDWSIALLRYFNPVGAHPSGDMGEDPQGIPNNLMPYIAQVAVGRRDSLAIFGNDYPTEDGTGVRDYIHVMDLADGHVVAMEKLANKPGVHIYNLGAGVGNSVLDVVNAFSKACGKPVNYHFAPRREGDLPAYWADASKADRELNWRVTRTLDEMAQDTWHWQSRHPQGYPD
modifications: Eschesichia Coli

Tests used:
[1] = test system: wild-type CHO cells; conditions: Krieger et al. (1989); cited from earlier work
[2] = test system: ldlD cells; conditions: Krieger et al. (1989); cited from earlier work
[3] = test system: UDP-gal/UDP-glc interconversion; test: In vitro assay for UDP-Gal, purified enzymes; type: biochemical; conditions: purified enzyme expressed in Pichia pastoris, FIG. 1
Procedure: (§1) In Vitro Assays for UDP-Gal: Aliquots of each purified enzyme from Example lwere stored in 50% glycerol with 4 mM NAD+ in liquid nitrogen, while crude extracts were stored at −80° C. until needed. All crude extracts were passed through Micro biospin 30 columns (Biorad) before being assayed for enzyme activity. Assays to determine the level of GALE activity with respect to UDP-Gal were performed essentially as previously described in Thoden et al. J Biol Chem Jul 26; 277(30):27528-34 (2002). […] For radioactive assay, conversion of UDP-Gal to UDP-Glc was measured in a 12.5-μl reaction containing 2.5 μl of premix (0.05 μCi of UDP-[^14C]Gal (Amersham Biosciences), […] cold UDP-Gal, 0.2 mM glycine buffer, pH 8.7), 2.5 μl of 20 mM NAD+, and 7.5 μl of purified protein diluted in Johnston buffer (20 mM HEPES/KOH, pH 7.5, 1 mM dithiothreitol, and 0.3 mg of bovine serum albumin/ml). Appropriate amounts of protein were used in each reaction in order to stay within the predetermined linear range of the assay. Reactions were incubated at 37° C for 30 min and were stopped by boiling at 100° C. for 10 min. […] Images were visualized with a Typhoon 9200 variable mode imager and quantified using ImageQuant software (both from Amersham Biosciences). Percent conversion was determined by dividing the product signal by the total signal and multiplying by 100. […] A 15 μl aliquot was then analyzed by HPLC. […]

[4] = test system: UDP-galNAc/UDP-glcNAc interconversion; test: In vitro assay for UDP-GalNAc, purified enzymes; type: biochemical; conditions: purified enzyme expressed in Pichia pastoris, FIG. 1
Procedure: (§2) In Vitro Assay for UDP-GalNAc: The radioactive method for detecting conversion of UDP-GalNAc to UDP-GIcNAc was performed essentially as described above for UDP-Gal, with the following assay components per 25 μl of reaction: 8.75 μl of premix (0.04 μCi of UDP-[^14C]GalNAc (ICN), 1.89 mM cold UDP-GalNAc, 28.6 mM pyruvate, 286 mM glycine, pH 8.7, 5 μl of 20 mM NAD), and 11.25 μl of protein diluted in Johnston buffer. Appropriate amounts of protein were used in each reaction to stay within the predetermined linear range of the assay. Assays were performed as for UDP-Gal, with a TLC run-time of 10 h and quantified as described for UDP-Gal.
(§3) For analysis by HPLC, protein samples were diluted with glycine buffer (100 mM glycine, pH 8.7) to a final volume of 7.5 μl. For each reaction, 2.5 μl of 20 mM NAD+, and 2.5 il of premix (3.3 mM UDP-GalNAc, and 500 mM glycine, pH 8.7) were added, for a final reaction volume of 12.5 μl. Assay mixtures were incubated at 37° C. for 30 min before stopping by addition of 2.5 volumes of ice-cold 100% methanol. Samples were vortexed, spun and dried as for UDP-Gal HPLC assays, and resuspended in 750 μl ddH2O. The suspension was added to an 0.2 μm nylon micro-spin filter tube, and spun for approximately 2.5 min at 4000 g. An aliquot of 20 μl was then analyzed by HPLC.
HPLC Analysis of Carbohydrates: Carbohydrate detection by HPLC was based on the methods of Smits (1998) and de Koning (1992). HPLC analysis was carried out on a DX600 HPLC system (Dionex, Sunnyvale, CA) consisting of a Dionex AS50 autosampler, a Dionex GP50 gradient pump, and a Dionex ED50 electrochemical detector. Carbohydrates were separated on a CarboPac PA10 column, 250×4 mm, with a CarboPac PA10 guard column, 50×4 mm, placed before the analysis column, and a borate trap placed after. […]
The ED50 detector consisted of a gold electrode and a pH-Ag/AgCl reference electrode for signal detection by integrated amperometry. […] Carbohydrates were quantified using PeakNet software version 6.4 (Dionex) and based on integration of peak areas with comparison to standards. […]

[5] = test system: UDP-galNAc/UDP-glcNAc interconversion; test: UDP-GalNAc activity of GALE alleles expressed in ldlD cells; type: biochemical; conditions: enzyme expressed in ldlD cells, FIG. 6
Procedure: as §2, §3
In this experiment, ldlD cells expressing WThGALE were used as a positive control, and ldlD cells expressing backbone alone were used as a negative control.

[6] = test system: UDP-gal/UDP-glc interconversion; test: In vitro UDP-gal activity assays on protein extracts from transfected ldlD cells; type: biochemical; conditions: protein extracts of stably transfected ldlD cells, CMV promoter, FIG. 3 and 5
Procedure: as §1

Molecule | galactose levels with no apparent toxicity [1] | galactose concentration at which cells experience toxicity [2] | UDP-Gal activity (UDP-Gal/UDP-Glc interconversion) [3] | ability to interconvert UDP-GalNAc and UDP-GlcNAc [4] | activity with regard to UDP-galNAc/UDP-glcNAc interconversion [5] | activity with regard to UDP-gal/UDP-glc interconversion [6] | UDP-GalNAc activity, % of that seen in WT hGALE [4] | activity with regard to UDP-galNAc/UDP-glcNAc interconversion ([5]; listed as C307Y hGALE)
O=C[C@H](O)[C@@H](O)[C@@H](O)[C@H](O)CO [galactose] | ≤ 10 mM | greater than 75 μM |  |  |  |  |  | 
B1 |  |  | well | well | very active |  |  | 
B2 |  |  | maintains wildtype levels |  | reduced to levels close to those seen in ldld cells expressing backbone alone; also recorded: reduced to levels close to those seen in IdiD cells expressing backbone alone | active | 2.30% | not significantly active
B3 |  |  |  | no ability | not significantly active | active |  | 
